Target: T1, endogenous AMPylated BiP of CHO-K1 cells (Cricetulus griseus (CHO-K1), UniProt G3I8R9, AMP (threonine 518 is the site the paper names for BiP modified by FICD))
T1 construct: ER chaperone BiP/Grp-78, endogenous in CHO-K1 cells; also called endogenous BiP-AMP; source: endogenous, CHO-K1 lysate (untreated or treated with CHX 4 h); also after methanol/chloroform precipitation (denatured)
Experiment: western blot; 20 μg total cell lysate (HEK293, CHO-K1; untreated, TG 2 h or CHX 4 h; in Figure 4A HEK293 lysate spiked with a titration of recombinant BiP-AMP) on the blot, probed with 17G6 in the presence of MnCl2
Settings: one partner purified

T1 sequence (G3I8R9 19-654): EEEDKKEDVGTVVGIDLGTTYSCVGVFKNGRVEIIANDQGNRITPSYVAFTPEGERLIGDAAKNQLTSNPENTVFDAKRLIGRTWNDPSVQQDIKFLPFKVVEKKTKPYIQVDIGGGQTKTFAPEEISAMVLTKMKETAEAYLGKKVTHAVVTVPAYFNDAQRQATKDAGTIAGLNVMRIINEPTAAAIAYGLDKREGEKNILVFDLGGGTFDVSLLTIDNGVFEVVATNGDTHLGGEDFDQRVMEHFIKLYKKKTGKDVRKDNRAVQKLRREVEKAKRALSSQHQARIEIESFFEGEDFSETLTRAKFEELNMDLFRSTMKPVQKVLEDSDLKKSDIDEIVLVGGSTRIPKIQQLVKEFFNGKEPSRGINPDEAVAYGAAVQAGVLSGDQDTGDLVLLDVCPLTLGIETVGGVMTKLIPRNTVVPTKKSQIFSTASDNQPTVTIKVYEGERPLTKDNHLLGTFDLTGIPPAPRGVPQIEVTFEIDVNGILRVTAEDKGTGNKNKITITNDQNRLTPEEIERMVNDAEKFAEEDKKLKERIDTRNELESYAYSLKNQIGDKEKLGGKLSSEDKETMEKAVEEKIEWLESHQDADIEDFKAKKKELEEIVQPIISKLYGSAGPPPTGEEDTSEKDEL

B1: monoclonal anti-AMP antibody 17G6 (antibody, V domains shown)
VH: EVQLQQSGPELVKPGASVKISCKASGYTFTDYYLNWVKQSHGKSLEWIGDIHPNKGINKYNQKFKGKATLTVDKSSSTAYMELRSLTSEDSAVYYCARYYGKRYFDVWGTGTMVTVSS
VL: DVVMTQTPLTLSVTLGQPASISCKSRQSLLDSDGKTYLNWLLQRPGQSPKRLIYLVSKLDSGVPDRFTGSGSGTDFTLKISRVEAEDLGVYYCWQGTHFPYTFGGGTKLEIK
notes: Recognises the AMP moiety on modified side chains; no preference for Thr or Tyr; source: mouse hybridoma (C57BL/6, BSA-hapten immunogen); roller bottle cell culture, purified from the supernatant (Protein A); clone supernatant in the selection ELISA
  binding result: binds

Reference: article PMC7704405, “Monoclonal Anti-AMP Antibodies Are Sensitive and Valuable Tools for Detecting Patterns of AMPylation” (iScience, 2020)
